This assay addresses PD-L1 at the surface of transduced cells (UniProt Q9NZQ7). As to the kind of experiment: flow cytometry, CHO-PD-L1 cells. Background: A flow cytometer gives signals particle by particle.

PD-L1 at the surface of transduced cells, sequence (Q9NZQ7 19-290 limits assumed): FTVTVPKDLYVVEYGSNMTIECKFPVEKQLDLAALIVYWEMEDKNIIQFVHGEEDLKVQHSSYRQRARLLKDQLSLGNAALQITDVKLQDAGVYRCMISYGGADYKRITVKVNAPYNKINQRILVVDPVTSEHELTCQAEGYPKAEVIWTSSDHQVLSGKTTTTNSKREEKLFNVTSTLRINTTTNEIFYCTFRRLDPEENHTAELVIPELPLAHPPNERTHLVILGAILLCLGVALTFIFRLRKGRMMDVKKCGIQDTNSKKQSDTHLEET

Take Isotype Durvalumab (antibody): the MFI at 10 nM amounted to 38000 MFI and the MFI at 100 nM was determined as 41600 MFI.

The record behind these values is patent US20260265379A1.
